T1: SB transposase N123 (N-terminal DNA-binding domain, residues 1-123) (synthetic (salmonid consensus))
T1 chain: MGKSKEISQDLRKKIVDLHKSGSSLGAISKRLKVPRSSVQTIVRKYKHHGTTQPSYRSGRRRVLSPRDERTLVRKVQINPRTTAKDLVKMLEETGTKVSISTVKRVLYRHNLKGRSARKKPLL


Target: T1, SB transposase N123 (N-terminal …)
Experiment: footprint; DNase I, 30-bp protected region within left IR probe
Conditions: tags: C-terminal His tag (pET21a)
Protocol: In addition to the NLS function, N123 also contains the specific DNA-binding domain of SB, as tested in a mobility-shift assay (FIG. 3B). A 300 bp EcoRI/HindIII fragment of pT comprising the left inverted repeat of the element was end-labeled using [α³²P]dCTP and Klenow. Nucleoprotein complexes were formed in 20 mM HEPES (pH 7.5), 0.1 mM EDTA, 0.1 mg/ml BSA, 150 mM NaCl, 1 mM DTT in a total volume of 10 μl. Reactions contained 100 pg labeled probe, 2 μg poly[dI][dC] and 1.5 μl N123. After 15 min incubation on ice, 5 μl of loading dye containing 50% glycerol and bromophenol blue was added and the samples loaded onto a 5% polyacrylamide gel (Ausubel). DNaseI footprinting was done using a kit from BRL according to the recommendations of the manufacturer. […]
The number of the deoxyribonucleoprotein complexes detected by the mobility-shift assay at increasingly higher N123 concentrations indicated two protein molecules bound per IR (FIG. 3B, right panel), consistent with either two binding sites for transposase within the IR or a transposase dimer bound to a single site. Transposase-binding sites were further analyzed and mapped in a DNasel footprinting experiment. […]

Row | Binder | binding result
1 | salmonid internal transposase-binding site (dsDNA) DNA 1: CCAGTGGGTCAGAAGTTTACATACACTAAG DNA 2: CTTAGTGTATGTAAACTTCTGACCCACTGG | binds
2 | salmonid outer transposase-binding site (dsDNA) DNA 1: GTTGAAGTCGGAAGTTTACATACACTTAGG DNA 2: CCTAAGTGTATGTAAACTTCCGACTTCAAC | binds
